Data taken from the supplement of paper PMC9170038.

System: MS2 coat protein
Experiment: apparent KD of MS2 coat protein; designed switch direction (-1 OFF switch, 1 ON switch): -1; higher = weaker reporter binding
Procedure, shortened: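 For each design, the apparent KD is the median over clusters of curves fitted to normalised cluster fluorescence. Clusters held RNA switches with common flanks, transcribed on Illumina chips by stalled E. coli RNA polymerase. These were titrated with SNAP-549-labelled MS2 coat protein, doubling from 0.7 or 1.5 nM to 3 µM, without input, with 200 uM small-molecule ligand, or with an oligonucleotide input.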

[1] = input ligand: microRNA oligo, concentration not stated
[2] = Eterna round: R95, input ligand: microRNA oligo, concentration not stated
[3] = Eterna round: R95, input ligand: FMN 200 uM
[4] = Eterna round: R95, input ligand: none

Sequence | apparent KD of MS2 coat protein (input ligand: FMN 200 uM) [nM] | apparent KD of MS2 coat protein [1] [nM] | apparent KD of MS2 coat protein (input ligand: none) [nM] | apparent KD of MS2 coat protein [2] [nM] | other results
UUAAUUAGCUCGCUAGAUCCUCACAUGAGGAUCACCCAUGUGCAGGAUAUCAGCUCGAUUAGAGCUGAGAAGGGCACUGCGAGC [ExNG3/10-A1] (Eterna round: R96, puzzle: Exclusion NG 3) | 160 | 89.5 | 104 |  | 
UAAACCAGAGGAUAUGCGAAUAAAUAAAACUUUUUUUUUUAACAUGAGGAUCACCCAUGUAGAAGGCUGCAAAU [Ex2 #33] (Eterna round: R97, puzzle: Exclusion 2) | 30 |  | 38.9 |  | 
AAAUUGGUAGAGGAUAUUGUACAGGAAACGGUGCGAGAAGGUUGCACAUGAGGAUCACCCAUGUUAAGUUGCGA [EX6 #46] (Eterna round: R97, puzzle: Exclusion 6) | 39.9 |  | 25.7 |  | 
AUUAAUGUCAAAGGAUAUCAGCACGUUUAGUGCUGAGAAGGUUGAACAUGAGGAUCACCCAUGUAGAUCAUUAAUAAUUUAAUU [ENG1/10-B1] (Eterna round: R96, puzzle: Exclusion NG 1) | 23.5 | 18.9 | 18.2 |  | 
GUCGUGCAGCUUUGCUGUACGAGUACAUGAGGAUCACCCAUGUAGGAUAUGGUACGCUUUGCGUGCCAGAAGGACGUGCGUUAG [salish99_ExNG3_r04_001] (Eterna round: R96, puzzle: Exclusion NG 3) | 53.3 | 35.2 | 39.3 |  | 
CACCUGAAGUCAGGAUAUCAUACAUGAGGAUCACCCAUGUAAUAAAUGAGAAUUUCGAAUGUAAUUGAGAAGGGACAAUAAGGC [Ostricism 97 - Jieux - Exclusion NG 2] (Eterna round: R96, puzzle: Exclusion NG 2) | 93.2 | 34 | 44.2 |  | 
CUCUUGGCAGGAUAUGCUCUCUUAGACAUGAGGAUCACCCAUGUGUUCAUUCUUUCUUUUGCAGAAGGGCCUUAAC [JR_E5_Sub046] (puzzle: Exclusion 5) |  |  |  | 65.2 | 
CCGGAAAUGGAGGAUAUCGUAUCGGAUACGAUACGAGAAGGCUAUACAUGAGGAUCACCCAUGUGUCCUACCGG [Fiskers Ex 6 - 5] (puzzle: Exclusion 6) |  |  |  | 12.6 | 
AAAGAAGAGAGAAAAUAACACAUGAGGAUCACCCAUGUGCGAUGUUGAGGGUGAUACAGGCUUUUUGCUCGUCUUAU (puzzle: Sensor v3, turn-off variant 1) |  |  |  | 512 | apparent KD of MS2 coat protein [3]: 311 nM; apparent KD of MS2 coat protein [4]: 199 nM
AAAACGGCAGGAUAUACAUGAGGAUCACCCAUGUGAAAUAAAAUAAAAUAAAAUAAAAGUAGAAGGGCCAAAAA [Exclusion 3 #3] (puzzle: Exclusion 3) |  |  |  | 40.7 | apparent KD of MS2 coat protein [3]: 40.4 nM; apparent KD of MS2 coat protein [4]: 58.6 nM
AAUAACAGAGGAUAUACUAUUUUAUGUAUUUAUUAUUUUGAACAUGAGGAUCACCCAUGUAGAAGGCUGAUUAA [JMF 47] (puzzle: Exclusion 2) |  |  |  | 28.7 | 
ACCUCUGCUGAGGAUAUCCUUGCGGAAGAAGGAGGAGAAGGCAGAACAUGAGGAUCACCCAUGUGGGAACAACG [Eternabot (Original) Solution 37] (Eterna round: R97, puzzle: Exclusion 6) | 182 |  | 83.8 |  | 
CCAUCGAGUGUGAGGAUAUGCUGGUCCUUGGAUCAGCAGAAGGCACAUGAGGAUCACCCAUGUGGAGACGGUGG [JL bmx4 3.18] (puzzle: Brourd's mod of Exclusion 4) |  |  |  | 44.3 | 
CAGGUUAGAGGAUAUACGUAGGUACAGAUCUGUGUGUUCCUACAUGAGGAUCACCCAUGUAGAAGGCUAUCCUG [LRO-Excl2-09] (puzzle: Exclusion 2) |  |  |  | 61.9 | 
UUAAAUCAUGUAGGAUAUGCUUUGCGAAGCGAGGCAGAAGGACAUGAGGAUCACCCAUGUGCUAGCGUCCGAGAACGGAUGCAA [Mat - Exclusion NG 1 - Mod of JL - D63] (Eterna round: R96, puzzle: Exclusion NG 1) | 149 | 51.8 | 79.6 |  | 
CAGCUGAAUGUGAGGAUAUUACGAGCGAUAGCUCGUGAGAAGGCACAUGAGGAUCACCCAUGUCUCAACAGCUG [BmEx4/2-B4] (Eterna round: R97, puzzle: Brourd's mod of Exclusion 4) | 552 |  | 38.6 |  | 
ACAUGAGGAUCACCCAUGUAAUCAUGAUGGCUGAUGUAGAGCUAGGAUAUGAGUGGCUUUCUAUCUCAGAAGGAGCUUGACUGG [Deportation 42 - Jieux - Exclusion NG 3] (Eterna round: R96, puzzle: Exclusion NG 3) | 28.9 | 25.5 | 37.2 |  | 
GUCCUGCAGCUUUGCUGUAGGCGUACAUGAGGAUCACCCAUGUAGGAUAUGGUAGGCUUUGCUUACUAGAAGGAUAGAGUGAUC [JL EXNG3 1.28] (Eterna round: R96, puzzle: Exclusion NG 3) | 43.1 | 7.08 | 38.4 |  | 

Sequence | apparent KD of MS2 coat protein (input ligand: FMN 200 uM) [nM] | apparent KD of MS2 coat protein [1] [nM] | apparent KD of MS2 coat protein (input ligand: none) [nM] | apparent KD of MS2 coat protein [2] [nM] | other results
CAGGAUAGAGGAUAUACAUAGAUACAGGUUCAUGUAAUCCUACAUGAGGAUCACCCAUGUAGAAGGCUAUCCUG [Fiskers Ex 2 - 19] (puzzle: Exclusion 2) |  |  |  | 14.8 | 
AAUAACAGAGGAUAUACUGUUUUAUGUGUUUGUUAUUUUAAACAUGAGGAUCACCCAUGUAGAAGGCUGAAUAA [JMF 15] (puzzle: Exclusion 2) |  |  |  | 19.8 | 
AGCUAGUCAGGAUAUUCUAUUAAUUACAUGAGGAUCACCCAUGUGAAUGGACAAGGGUGUGAAGAAGGGACUAGCG [Omei Ex5 A13] (Eterna round: R97, puzzle: Exclusion 5) | 394 |  | 2080 |  | 
CGUAAGCUAGGAUAUGCUUUGGGAAAGCAUUCCUUCGAUAAACUUGAGGAUCACCCAAGUAGAAGGAGCUUACC [salish99_ex2_r4_009] (Eterna round: R97, puzzle: Exclusion 2) | 11.7 |  | 11.5 |  | 
GACUUCCGAGGAUAUACAUGAGGAUCACCCAUGUGCUUCAGCAUUUUUUGAUGCAUGGGUAGAAGGCGGUAGUU [LRO-Excl3-16] (puzzle: Exclusion 3) |  |  |  | 226 | 
UCGCUGCGAGGAUAUACAUGAGGAUCACCCAUGUACGGGUCCGGGUUUGAGUUGAUGAGUAGAAGGCGCAGUGA [JL Laongeedie mod 13] (puzzle: Exclusion 3) |  |  |  | 79.2 | 
UAUCGGCGGACCCAGGCUUUUUGCUCGUCUUAUGCUAUGACAUGAGGAUCACCCAUGUGGUGGUGGUCCGUUGUAGU [JL ViennaUCT Bitein mod 11] (puzzle: Sensor v3, turn-off variant 2) |  |  |  | 11.3 | apparent KD of MS2 coat protein [3]: 21.1 nM; apparent KD of MS2 coat protein [4]: 19.5 nM
CAAAUCUGAGGAUAUCGAUAUUUGUACAUGAGGAUCACCCAUGUCCUAUUUAUAAAAUCCCGAGAAGGCAGUGUAU [JR_E5_Sub095] (puzzle: Exclusion 5) |  |  |  | 16.2 | 
AUAUUGUGAGGAUAUGAACUUAGUAUCGAAAGAUACAAAGUUCAGAAGGCACAUGAGGAUCACCCAUGUUUCUC [Long static hairpin v7] (Eterna round: R97, puzzle: Exclusion 4) | 703 |  | 76.1 |  | 
GCACGGUUGCUAGGAUAUCCUUGCGAUUAGCAAGGAGAAGGAGCACAUGAGGAUCACCCAUGUACCUCAAUAAUCCAUCCGUGC [Eli exng1 - 029] (Eterna round: R96, puzzle: Exclusion NG 1) |  | 11 |  |  | 
AGUAGUAGUAUCCGAUCCGACAUGAGGAUCACCCAUGUAGCUAGACGUGCACGCGAUGCUCGUCAGACUACCAGAUG [salish99_TOv1_r3_037] (puzzle: Sensor v3, turn-off variant 1) |  |  |  | 100 | apparent KD of MS2 coat protein [3]: 102 nM; apparent KD of MS2 coat protein [4]: 74.1 nM
GCUUUUCUUUUCCUUUCUUACAUGAGGAUCACCCAUGUUUCUUGUCGUCCUCGCGUUGCUCGUCUGUCUGUCUGUUG [salish99_TOv1_r3_078] (puzzle: Sensor v3, turn-off variant 1) |  |  |  | 135 | apparent KD of MS2 coat protein [3]: 97.8 nM; apparent KD of MS2 coat protein [4]: 95.9 nM
ACAUGAGGAUCACCCAUGUGCCCAUCUAGCACAUGUCCUCGCUAGGAUAUGUAGGCCUCGACGCCGCAGAAGGAGCUAAAAGAG [Raatlaan] (Eterna round: R96, puzzle: Exclusion NG 3) | 129 | 44.6 | 64.5 |  | 
GUACAUAUAGGAUAUACAUGAGGAUCACCCAUGUAAAUCGUUAGUUGGGAUUCUAAAAGUAGAAGGGUGGUGCG [Eternabot (L2) Solution 30] (Eterna round: R97, puzzle: Exclusion 3) | 27.6 |  | 27.4 |  | 
UAUUGUAGACAGGAUAUCUAUCGGGUAACCCGAAGAGAAGGGUCUACAUGAGGAUCACCCAUGUGGCCCGUUUU [EX6 B.29] (Eterna round: R97, puzzle: Exclusion 6) | 42 |  | 21.5 |  | 
GCAGUGACAUGAGGAUCACCCAUGUGGAACUCGUGAAUAAGCGAGGAUAUCUCAAGAUAUCAAAGAGAGAAGGCGUACACUGCA [Diorso] (Eterna round: R96, puzzle: Exclusion NG 3) | 731 | 159 | 229 |  | 
UUGUUAUAUGUAGGAUAUGCAUAUUGUUGUUAUGCAGAAGGACAUGAGGAUCACCCAUGUAUAUUAUUGUUAUAUAUUGUAUAU [Title] (Eterna round: R96, puzzle: Exclusion NG 1) |  | 20.1 |  |  | 
